Key:
[1] = molecular target: human FcγRI on cells (monocytes, IFN-γ-treated neutrophils, U937 cells) (human) (UniProt P12314); experiment: flow cytometry, FITC antibody on monocytes, average of duplicates
[2] = molecular target: T1, soluble fusion protein consisting of the extracellular domain of human FcγRI and human IgM heavy chain … (human, UniProt P12314 16-292; P01871 106-453); experiment: ELISA on captured sFcγRI-µ, in excess human IgG1 lambda
T1 construct: From supernatant of transiently transfected COS cells, captured on plates with goat anti-human IgM; also called FcRI/IgM fusion protein; FcγRI/IgM heavy chain fusion protein
T1 sequence (P12314 other isoform, or with tags, fused parts or gaps): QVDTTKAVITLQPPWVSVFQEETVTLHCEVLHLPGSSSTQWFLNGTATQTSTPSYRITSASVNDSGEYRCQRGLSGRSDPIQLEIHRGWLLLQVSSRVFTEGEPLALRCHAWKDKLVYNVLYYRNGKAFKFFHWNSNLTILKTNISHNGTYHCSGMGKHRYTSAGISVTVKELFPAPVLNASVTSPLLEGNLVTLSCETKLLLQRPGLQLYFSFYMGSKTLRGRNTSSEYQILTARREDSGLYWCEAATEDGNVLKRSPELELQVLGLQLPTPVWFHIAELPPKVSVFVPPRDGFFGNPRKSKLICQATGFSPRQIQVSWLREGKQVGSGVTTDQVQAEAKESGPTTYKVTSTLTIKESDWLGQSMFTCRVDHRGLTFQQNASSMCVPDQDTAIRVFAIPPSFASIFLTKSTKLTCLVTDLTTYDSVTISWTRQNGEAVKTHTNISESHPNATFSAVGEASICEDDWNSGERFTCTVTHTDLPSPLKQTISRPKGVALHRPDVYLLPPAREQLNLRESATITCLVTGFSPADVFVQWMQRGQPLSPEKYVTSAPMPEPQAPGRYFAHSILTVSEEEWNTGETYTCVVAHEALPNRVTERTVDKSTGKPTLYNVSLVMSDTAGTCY
Experimental: The binding of the antibodies to antigen was measured by ELISA. Wells of a microtitre plate (Immunlon 1, Dynatech, Chantilly, Va.) were coated with 200 ng goat anti-human IgM antibodies (Sera-lab, Crawley Down, U.K.) in 100 μl 50 mM carbonate buffer pH 9.6 at 37° C. for at least one hour. Wells were emptied and washed once with PBST and blocked with 1% BSA in PBS at room temperature for thirty minutes. The wells were emptied and washed with PBST and Cos supernatant containing FcRI/IgM fusion protein was added and incubated for one hour at room temperature. Wells were then emptied and washed three times with PBST and test antibodies diluted in 1% BSA/PBS were added and incubated for one hour at room temperature. In addition, each well contained 2 μg human IgGI, lambda antibody (Sigma, Poole, U.K.) The wells were then emptied, washed three times with PBST and 40 ng peroxidase goat anti-human kappa constant region antibodies (Sera-Lab, Crawley Down, U.K.) in 100 μl 1% BSA/PBS added to each well. After incubation for one hour at room temperature, the wells were emptied, washed three time with PBST and 10 μl HPD substrate buffer was added.
The wells of a microtiter plate were coated with goat anti-human IgM antibodies (Sera-Lab, Crawley Down, U.K.) in 50 mM bicarbonate buffer, pH 9.6. […]

Sequence of human FcγRI on cells (monocytes, IFN-γ-treated neutrophils, U937 cells) (human) (P12314 16-374): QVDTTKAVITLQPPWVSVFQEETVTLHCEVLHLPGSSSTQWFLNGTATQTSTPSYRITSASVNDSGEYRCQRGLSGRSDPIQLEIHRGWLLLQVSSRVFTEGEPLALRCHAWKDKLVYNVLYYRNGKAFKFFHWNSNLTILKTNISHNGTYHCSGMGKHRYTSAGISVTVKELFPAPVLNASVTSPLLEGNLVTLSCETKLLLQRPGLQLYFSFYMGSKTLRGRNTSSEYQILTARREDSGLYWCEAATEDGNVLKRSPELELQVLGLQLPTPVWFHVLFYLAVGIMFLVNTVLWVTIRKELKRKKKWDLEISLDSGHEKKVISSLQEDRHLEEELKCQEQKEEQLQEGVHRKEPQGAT

humanized mAb 22, KOL VH/REI Vκ mAb, designated H22 (antibody)
antibody sites per cell (monocytes) (antibody sites per cell) [1]: 10500

B1: humanized NEWM VH/REI Vκ mAb (antibody, human IgG1, V domains shown)
VH: QVQLQESGPGLVRPSQTLSLTCTVSGFIFSDNYMYWVRQPPGRGLEWIGTISDGGSYTYYPDSVKGRVTMLRDTSKNQFSLRLSSVTAADTAVYYCARGYYRYEGAMDYWGQGSLVTVSS
VL: DIQLTQSPSSLSASVGDRVTITCKSSQSVLYSSNQKNYLAWYQQKPGKAPKLLIYWASTRESGVPSRFSGSGSGTDFTFTISSLQPEDIATYYCHQYLSSWTFGQGTKVEIK
notes: Human IgG1 and human kappa constant regions; also called NEWM/REI based antibody; NMVK/HuVK
fold lower affinity than the chimeric mAb [2]: ~5 fold
